The record followed here is patent publication US20060153844A1, “Methods to trigger, maintain and manipulate immune responses by targeted administration of biological response modifiers into lymphoid organs” (priority 2004, published 2006).

For this test, the system named is PLA2-specific IgG2a and IgG1 antibodies. The test can be described thus: anti-PLA2 IgG2a, IgG1 and IgE in sera after intralymphatic PLA2 plus TLR ligand. In kind it is in vivo, CBA/J mice. As for the experimental part: The compounds were mixed within an hour before injection into the inguinal lymph node.
The sera were obtained over 13 weeks and analyzed by ELISA for anti-PLA2 IgG2a (FIG. 10A) and IgG1 (FIG. 10B). The ratio of IgG2a to IgG1 titers was calculated as a measure for Th1/Th2 immune response balance (FIG. 10C). […] Pre-immunization levels of anti-PLA2 antibodies were measured on sera from five mice taken the day before first injection.

B1: flagellin: flagellin, S. thyphimurium, TLR 5 ligand (protein, UniProt P06179 2-495, looked up)
Flagellin: AQVINTNSLSLLTQNNLNKSQSALGTAIERLSSGLRINSAKDDAAGQAIANRFTANIKGLTQASRNANDGISIAQTTEGALNEINNNLQRVRELAVQSANSTNSQSDLDSIQAEITQRLNEIDRVSGQTQFNGVKVLAQDNTLTIQVGANDGETIDIDLKQINSQTLGLDTLNVQQKYKVSDTAATVTGYADTTIALDNSTFKASATGLGGTDQKIDGDLKFDDTTGKYYAKVTVTGGTGKDGYYEVSVDKTNGEVTLAGGATSPLTGGLPATATEDVKNVQVANADLTEAKAALTAAGVTGTASVVKMSYTDNNGKTIDGGLAVKVGDDYYSATQNKDGSISINTTKYTADDGTSKTALNKLGGADGKTEVVSIGGKTYAASKAEGHNFKAQPDLAEAAATTTENPLQKIDAALAQVDTLRSDLGAVQNRFNSAITNLGNTVNNLTSARSRIEDSDYATEVSNMSRAQILQQAGTSVLAQANQVPQNVLSLLR
Take B1: for the setting “i.ln. with 0.1 μg PLA2, sera over 13 weeks”, the “kinetics of the antibody production (time of maximum titers)” value is “peak titers were delayed”. In addition, the “anti-PLA2 antibody isotypes induced (IgG2a, IgG1)” value (i.ln. with 0.1 μg PLA2, three injections) is “induced both IgG2a and IgG1”.
